The assay concerns the target extracellular matrix proteins (ELISA of Figure S3: 'In each case'). The assay is described as follows: ELISA. A general note: In an ELISA, binding on a coated surface is turned into a signal by an enzyme label.

This is an account of results in doi:10.1101/705442.

One may read the Kd as the free concentration of one partner at which half of the binding sites on the other are occupied at equilibrium, for simple one-to-one binding. Regarding “capillary morphogenesis gene 2 (ANTXR2/CMG2), biotinylated CMG2-AviTag construct (from UniProt P58335 34-489) (receptor)”, the Kd lay within 0.5 to 1 µM.
